± gives the standard deviation of the averaged measurements.

Experimental findings from the supplement of paper PMC10126150 are described below.

The data set deals with ATP. Kind of data set: switch fluorescence ratio, 500 uM ATP over buffer (Cy3 cluster intensity, sum of 5 cycles each) (fold (ratio)); higher = stronger signal-on switching upon ATP binding; sequences stand for … in TCGTCGGCAGCGTCAGATGTGTATAAGAGACAGTTTTTTTTTTTTTTTTTTTTTTTTT…TC. Conditions: aptamer strand: ATP DNA aptamer (quencher-CACCTGGGGGAGTATTGCGGAGGAAGG + anchor), 100 nM annealed; ATP concentration: 500 uM. Summed up:
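Values give the fluorescence ratio for each switch-domain sequence, averaged from per-cluster ratios of summed target-cycle to summed buffer-cycle Cy3 intensity. The Cy3-labelled switching-strand clusters sat on a modified Illumina MiSeq flow-cell, were annealed to 100 nM quencher-labelled ATP aptamer, and were imaged in selection buffer, then after 15 min with 500 uM ATP at 22 °C. Five cycles ran with NaOH stripping and re-annealing between them, and clusters outside 100-1000 RFU were excluded.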
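Also: ATP exposure 15 min at 22 °C before imaging.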

GAAGTAGAGG: the switch fluorescence ratio amounted to 1 ± 0.032.

GAAGTAGCAG: the switch fluorescence ratio was 0.984 ± 0.025.

With GAAGTAGTGG, the switch fluorescence ratio was 1.01 ± 0.014.

As for GAAGTATGAT, the switch fluorescence ratio worked out at 0.962 ± 0.042.

As for GAAGTCGAAT, the switch fluorescence ratio stood at 1.014 ± 0.0091.

GAAGTCGGAT: the switch fluorescence ratio stood at 0.979 ± 0.019.

With GAAGTTTAAA, the switch fluorescence ratio stood at 1.02 ± 0.035.

In the case of GAAGTTTGAT, the switch fluorescence ratio stood at 0.9867 ± 0.0011.

In the case of GAATAAAGAG, the switch fluorescence ratio was 0.966 ± 0.034.

Regarding GAATAACTGG, the switch fluorescence ratio was found to be 0.993 ± 0.084.

For the sequence GAATAAGGGA, the switch fluorescence ratio is 1 ± 0.014.

GAATAAGTCC: the switch fluorescence ratio was determined as 1.04 ± 0.028.

On to GAATAATGAT, for which the switch fluorescence ratio worked out at 0.989 ± 0.028.

Regarding GAATACGGGG, the switch fluorescence ratio came out at 1.06 ± 0.044.

GAATAGAGGT: the switch fluorescence ratio was 1.02 ± 0.037.

Turning to GAATATAATG, the switch fluorescence ratio worked out at 0.978 ± 0.032.

Turning to GAATATTTAG, the switch fluorescence ratio worked out at 0.958 ± 0.015.

For GAATATTTCT, the switch fluorescence ratio was determined as 1.02 ± 0.021.

With GAATCAGTGT, the switch fluorescence ratio was found to be 1 ± 0.022.

GAATCGGCAT: the switch fluorescence ratio came to 1.02 ± 0.039.

Take GAATCGGGGA: the switch fluorescence ratio amounted to 1.012 ± 0.0031.

On to GAATCTGTGT, for which the switch fluorescence ratio came out at 0.998 ± 0.031.

On to GAATCTTGGA, for which the switch fluorescence ratio was 0.99 ± 0.015.

Turning to GAATGAGTCT, the switch fluorescence ratio came to 1.01 ± 0.091.

For GAATGCTCAC, the switch fluorescence ratio was 1.14 ± 0.064.

For the sequence GAATGGCCAG, the switch fluorescence ratio was found to be 0.992 ± 0.034.

As for GAATGGGACG, the switch fluorescence ratio is 1 ± 0.021.

Take GAATGGGATC: the switch fluorescence ratio was determined as 0.9698 ± 0.0059.

Turning to GAATGGGGCA, the switch fluorescence ratio is 0.978 ± 0.032.

For the sequence GAATGGGGTC, the switch fluorescence ratio turned out to be 0.976 ± 0.011.

Turning to GAATGGGGTT, the switch fluorescence ratio is 0.98 ± 0.026.

GAATGGGTAG: the switch fluorescence ratio was found to be 0.9961 ± 0.0042.

On to GAATGGTTTT, for which the switch fluorescence ratio amounted to 0.971 ± 0.084.

As to GAATGTAGTT, the switch fluorescence ratio was found to be 1.01 ± 0.017.

GAATGTATGG: the switch fluorescence ratio amounted to 1.04 ± 0.049.

Take GAATTAAGTT: the switch fluorescence ratio came to 1.01 ± 0.033.

Consider GAATTACGGC, for which the switch fluorescence ratio was determined as 1.04 ± 0.069.

As to GAATTAGCTT, the switch fluorescence ratio is 0.983 ± 0.023.

For the sequence GAATTAGTGT, the switch fluorescence ratio is 0.984 ± 0.019.

On to GAATTATGGC, for which the switch fluorescence ratio came out at 1.01 ± 0.085.

Take GAATTATTAA: the switch fluorescence ratio turned out to be 0.9922 ± 0.0026.

With GAATTCGGCT, the switch fluorescence ratio is 1.0193 ± 6.4e-05.

For the sequence GAATTCTCCG, the switch fluorescence ratio is 1.18 ± 0.012.

As to GAATTCTCGT, the switch fluorescence ratio stood at 0.969 ± 0.024.

For GAATTCTGAG, the switch fluorescence ratio worked out at 1.02 ± 0.04.

For the sequence GAATTGGATG, the switch fluorescence ratio worked out at 0.965 ± 0.052.

Turning to GAATTGGGAG, the switch fluorescence ratio came out at 0.998 ± 0.02.

With GAATTGGTTT, the switch fluorescence ratio worked out at 0.999 ± 0.017.

Regarding GAATTGTTCG, the switch fluorescence ratio turned out to be 0.985 ± 0.051.

With GAATTTGTTT, the switch fluorescence ratio is 0.984 ± 0.035.

On to GAATTTTCG, for which the switch fluorescence ratio was 1.009 ± 0.0097.

Consider GAATTTTTGA, for which the switch fluorescence ratio amounted to 0.991 ± 0.021.

Consider GACAAAGATT, for which the switch fluorescence ratio came to 1.0037 ± 0.00037.

Take GACAATAGGC: the switch fluorescence ratio came out at 1.1 ± 0.045.

With GACAATGGTT, the switch fluorescence ratio came to 1 ± 0.027.

In the case of GACAATTCGG, the switch fluorescence ratio stood at 1.01 ± 0.021.

Take GACAGAAGGC: the switch fluorescence ratio came out at 1 ± 0.052.

Take GACAGATATG: the switch fluorescence ratio is 0.979 ± 0.081.

Regarding GACAGCCCAG, the switch fluorescence ratio was determined as 1 ± 0.019.

Consider GACAGGGATG, for which the switch fluorescence ratio came out at 1.02 ± 0.039.

Take GACAGGTCGT: the switch fluorescence ratio stood at 1.043 ± 0.0054.

For GACAGGTGGG, the switch fluorescence ratio was determined as 1.07 ± 0.059.

Turning to GACATAAAAG, the switch fluorescence ratio was 1.03 ± 0.053.

As for GACATTCTCG, the switch fluorescence ratio stood at 1.005 ± 0.0086.

Take GACATTTGTT: the switch fluorescence ratio came out at 0.986 ± 0.014.

GACCACGGTC: the switch fluorescence ratio was 1.02 ± 0.041.

Regarding GACCACTATC, the switch fluorescence ratio is 1.1 ± 0.02.

As for GACCATACGT, the switch fluorescence ratio came out at 1.49 ± 0.026.

For GACCATGAAA, the switch fluorescence ratio came out at 0.96295 ± 0.0008.

For GACCATGGGG, the switch fluorescence ratio was found to be 1.07 ± 0.098.

For GACCATTGTC, the switch fluorescence ratio is 0.99 ± 0.063.

For GACCATTTAA, the switch fluorescence ratio was determined as 1.023 ± 0.0027.

For the sequence GACCCGCCAA, the switch fluorescence ratio was 4.89 ± 1.

Take GACCCTTACC: the switch fluorescence ratio was 1.38 ± 0.014.

For the sequence GACCGATTGT, the switch fluorescence ratio amounted to 1.03 ± 0.065.

Turning to GACCGCAGCA, the switch fluorescence ratio amounted to 4.22 ± 0.49.

GACCTTGGGA: the switch fluorescence ratio stood at 0.992 ± 0.039.

For the sequence GACCTTTCGT, the switch fluorescence ratio is 1.1 ± 0.069.

GACGAAAAAG: the switch fluorescence ratio was 0.982 ± 0.017.

For the sequence GACGACATGT, the switch fluorescence ratio worked out at 1.09 ± 0.035.

Take GACGACGTGC: the switch fluorescence ratio worked out at 2.33 ± 0.44.

For the sequence GACGACTCGG, the switch fluorescence ratio worked out at 0.987 ± 0.026.

As for GACGAGCCTG, the switch fluorescence ratio was found to be 0.996 ± 0.015.

For GACGAGGGGC, the switch fluorescence ratio came to 1.18 ± 0.031.

For GACGATTATA, the switch fluorescence ratio came to 1.028 ± 0.0017.

For GACGCACTGG, the switch fluorescence ratio was 1.853 ± 0.0015.

On to GACGCGTGTG, for which the switch fluorescence ratio worked out at 1.03 ± 0.042.

For GACGCTAAGG, the switch fluorescence ratio came out at 1.094 ± 0.0069.

For GACGGAGGCA, the switch fluorescence ratio was 1.03 ± 0.031.

Regarding GACGGATACA, the switch fluorescence ratio is 1.38 ± 0.091.

On to GACGGCTATG, for which the switch fluorescence ratio turned out to be 1 ± 0.048.

With GACGGGCAGG, the switch fluorescence ratio was found to be 1.027 ± 0.0056.

In the case of GACGGGGAAG, the switch fluorescence ratio worked out at 1.08 ± 0.069.

Turning to GACGGGGAAT, the switch fluorescence ratio was determined as 0.979 ± 0.01.

As for GACGGGGCGG, the switch fluorescence ratio stood at 0.994 ± 0.031.

Turning to GACGGGGCTA, the switch fluorescence ratio is 1.01 ± 0.023.

Regarding GACGGGGGGA, the switch fluorescence ratio came out at 1.03 ± 0.077.

Regarding GACGGGGGGG, the switch fluorescence ratio is 1 ± 0.023.

For the sequence GACGGTAAAA, the switch fluorescence ratio is 1.04 ± 0.015.

As for GACGGTAGTA, the switch fluorescence ratio worked out at 1.02 ± 0.017.

GACGGTGTGC: the switch fluorescence ratio was 1.077 ± 0.0059.

Regarding GACGGTTCAG, the switch fluorescence ratio was determined as 1.03 ± 0.023.

Regarding GACGTACAAC, the switch fluorescence ratio is 1.619 ± 0.0099.

For GACGTACTCA, the switch fluorescence ratio was 1.51 ± 0.17.

As for GACGTCTGGC, the switch fluorescence ratio came out at 1.14 ± 0.24.

GACGTGATCC: the switch fluorescence ratio came to 2.5 ± 0.8.

Turning to GACGTGTTG, the switch fluorescence ratio came out at 1.01 ± 0.025.

Take GACGTTAAAC: the switch fluorescence ratio was determined as 1.56 ± 0.019.

Take GACGTTAAAT: the switch fluorescence ratio stood at 1.01 ± 0.034.

Consider GACGTTTTGC, for which the switch fluorescence ratio is 1.073 ± 0.0083.

As to GACTAACGCA, the switch fluorescence ratio stood at 1.25 ± 0.057.

As to GACTAACGGA, the switch fluorescence ratio amounted to 1.19 ± 0.1.

Regarding GACTAACTAC, the switch fluorescence ratio worked out at 1.251 ± 0.0087.

On to GACTAAGGGG, for which the switch fluorescence ratio came out at 1 ± 0.02.

GACTAATTAA: the switch fluorescence ratio stood at 0.978 ± 0.036.

As to GACTAGGCCT, the switch fluorescence ratio is 0.988 ± 0.02.

As for GACTAGTTAT, the switch fluorescence ratio came to 0.993 ± 0.019.

As for GACTATAATT, the switch fluorescence ratio amounted to 1.026 ± 0.0032.

On to GACTATGAGG, for which the switch fluorescence ratio worked out at 1.02 ± 0.095.

Regarding GACTATTGAA, the switch fluorescence ratio is 1 ± 0.056.
